{
  "source": "patent US7592163B2",
  "about": "(The Board of Trustees of the University of Illinois, priority 2004, dated 2009)",
  "molecules": {"B1": {"name": "N. crassa XR (Neurospora crassa OR74A) (protein)", "chain": "MVPAIKLNSGFDMPQVGFGLWKVDGSIASDVVYNAIKAGYRLFDGACDYGNEVECGQGVARAIKEGIVKREELFIVSKLWNTFHDGDRVEPIVRKQLADWGLEYFDLYLIHFPVALEYVDPSVRYPPGWHFDGKSEIRPSKATIQETWTAMESLVEKGLSKSIGVSNFQAQLLYDLLRYAKVRPATLQIEHHPYLVQQNLLNLAKAEGIAVTAYSSFGPASFREFNMEHAQKLQPLLEDPTIKAIGDKYNKDPAQVLLRWATQRGLAIIPKSSREATMKSNLNSLDFDLSEEDIKTISGFDRGIRFNQPTNYFSAENLWIFG"}, "B2": {"name": "C. tenuis: xylose reductase from Candida tenuis, literature (protein, UniProt O74237 1-322, looked up)", "NAD(P)H-dependent D-xylose …": "MSASIPDIKLSSGHLMPSIGFGCWKLANATAGEQVYQAIKAGYRLFDGAEDYGNEKEVGDGVKRAIDEGLVKREEIFLTSKLWNNYHDPKNVETALNKTLADLKVDYVDLFLIHFPIAFKFVPIEEKYPPGFYCGDGNNFVYEDVPILETWKALEKLVAAGKIKSIGVSNFPGALLLDLLRGATIKPAVLQVEHHPYLQQPKLIEFAQKAGVTITAYSSFGPQSFVEMNQGRALNTPTLFAHDTIKAIAAKYNKTPAEVLLRWAAQRGIAVIPKSNLPERLVQNRSFNTFDLTKEDFEEIAKLDIGLRFNDPWDWDNIPIFV"}, "B3": {"name": "P. stipitus: NADPH-dependent xylose reductase from P. stipitus, literature (protein, UniProt P31867 1-318, looked up)", "NAD(P)H-dependent D-xylose …": "MPSIKLNSGYDMPAVGFGCWKVDVDTCSEQIYRAIKTGYRLFDGAEDYANEKLVGAGVKKAIDEGIVKREDLFLTSKLWNNYHHPDNVEKALNRTLSDLQVDYVDLFLIHFPVTFKFVPLEEKYPPGFYCGKGDNFDYEDVPILETWKALEKLVKAGKIRSIGVSNFPGALLLDLLRGATIKPSVLQVEHHPYLQQPRLIEFAQSRGIAVTAYSSFGPQSFVELNQGRALNTSPLFENETIKAIAAKHGKSPAQVLLRWSSQRGIAIIPKSNTVPRLLENKDVNSFDLDEQDFADIAKLDINLRFNDPWDWDKIPIFV"}, "B4": {"name": "S. cerevisiae: xylose reductase from S. cerevisiae, literature (protein, UniProt P38715 2-327, looked up)", "NADPH-dependent aldose …": "SSLVTLNNGLKMPLVGLGCWKIDKKVCANQIYEAIKLGYRLFDGACDYGNEKEVGEGIRKAISEGLVSRKDIFVVSKLWNNFHHPDHVKLALKKTLSDMGLDYLDLYYIHFPIAFKYVPFEEKYPPGFYTGADDEKKGHITEAHVPIIDTYRALEECVDEGLIKSIGVSNFQGSLIQDLLRGCRIKPVALQIEHHPYLTQEHLVEFCKLHDIQVVAYSSFGPQSFIEMDLQLAKTTPTLFENDVIKKVSQNHPGSTTSQVLLRWATQRGIAVIPKSSKKERLLGNLEIEKKFTLTEQELKDISALNANIRFNDPWTWLDGKFPTFA"}},
  "key": {"N. crassa XR": {"target": "T1, N. crassa XR (Neurospora crassa, UniProt Q7SD67)", "T1 sequence (Q7SD67 1-322)": "B1 chain", "assay": "Kinetic analysis of N. crassa XR: initial rates, NAD(P)H consumption at 340 nm, with cofactors and sugar substrates", "assay_type": "biochemical", "settings": "for acts as substrate for N. crassa XR: NADPH as the cofactor; for fold difference in catalytic efficiency (kcat/KM) between NADPH and NADH: NADPH favoured over NADH; for kcat: xylose reduction with the named coenzyme, 25° C., 50 mM MOPS pH 6.3", "protocol": "Michaelis-Menten constants (KM) were determined for both cofactors as well as for xylose with either cofactor. The maximum turnover number (kcat) was also determined with both cofactors. […] Xylose concentrations were varied from 10 to 250 mM while either cofactor concentration was held at 160 μM.\nAnalysis of substrate specificity.\nKinetic Analysis. […] All initial rate assays were carried out at 25° C. in 50 mM MOPS pH 6.3 using a Varian Cary 100 Bio UV-visible spectrophotometer unless otherwise noted. The reaction was initiated by addition of 0.1-1 μg of XR. […] The data were then converted to turnover number and fitted by non-linear regression analysis to the Michaelis-Menten equation using Origin 5.0. […] All assays were performed in duplicate or triplicate at least two times. The kinetic data presented represent averages of statistically relevant measurements and with their associated standard deviations."}, "[1]": {"substrate": "OC1OC[C@@H](O)[C@H](O)[C@H]1O", "assay": "Kinetic analysis of N. crassa XR: initial rates, NAD(P)H consumption at 340 nm, with cofactors and sugar substrates", "assay_type": "biochemical, Neurospora crassa", "settings": "other: KM of the sugar substrate, NADPH as cofactor, 25° C., 50 mM MOPS pH 6.3"}, "[2]": {"substrate": "OC1OC[C@@H](O)[C@@H](O)[C@H]1O", "assay": "Kinetic analysis of N. crassa XR: initial rates, NAD(P)H consumption at 340 nm, with cofactors and sugar substrates", "assay_type": "biochemical, Neurospora crassa", "settings": "other: KM of the sugar substrate, NADPH as cofactor, 25° C., 50 mM MOPS pH 6.3"}, "[3]": {"substrate": "OC1OC[C@H](O)[C@H](O)[C@H]1O", "assay": "Kinetic analysis of N. crassa XR: initial rates, NAD(P)H consumption at 340 nm, with cofactors and sugar substrates", "assay_type": "biochemical, Neurospora crassa", "settings": "other: KM of the sugar substrate, NADPH as cofactor, 25° C., 50 mM MOPS pH 6.3"}, "[4]": {"settings": "literature, cited from earlier work; for kcat / Km: with NADPH as cofactor; for Km: read-out: KM, Xylose"}},
  "data": [
    {"molecule": "O=C(CO)[C@@H](O)[C@H](O)[C@H](O)CO", "note": "[D-fructose]", "values": [
      {"measurement": "acts as substrate for N. crassa XR", "setting": "N. crassa XR", "value": "did not act as substrates"}
    ]},
    {"molecule": "O=C[C@@H](O)[C@H](O)[C@H](O)CO", "note": "[D-arabinose]", "values": [
      {"measurement": "acts as substrate for N. crassa XR", "setting": "N. crassa XR", "value": "did not act as substrates"},
      {"measurement": "acts as substrate for N. crassa XR", "setting": "N. crassa XR; listed as D-arabinos", "value": "activity"}
    ]},
    {"molecule": "OC[C@H]1O[C@@](CO)(O[C@H]2O[C@H](CO)[C@@H](O)[C@H](O)[C@H]2O)[C@@H](O)[C@@H]1O", "note": "[sucrose]", "values": [
      {"measurement": "acts as substrate for N. crassa XR", "setting": "N. crassa XR", "value": "did not act as substrates"}
    ]},
    {"molecule": "Nicotinamide adenine dinucleotide phosphate reduced [NADPH]", "values": [
      {"measurement": "fold difference in catalytic efficiency (kcat/KM) between NADPH and NADH", "setting": "N. crassa XR", "value": 100, "unit": "fold"},
      {"measurement": "kcat", "setting": "N. crassa XR", "value": "60 ± 1.67", "unit": "s⁻¹"}
    ]},
    {"molecule": "Nicotinamide adenine dinucleotide reduced [NADH]", "values": [
      {"measurement": "fold difference in catalytic efficiency (kcat/KM) between NADPH and NADH", "setting": "N. crassa XR", "value": 100, "unit": "fold"},
      {"measurement": "kcat", "setting": "N. crassa XR", "value": "5.17 ± 0.167", "unit": "s⁻¹"}
    ]},
    {"molecule": "B1", "values": [
      {"measurement": "Km", "setting": "[1]", "value": 34, "unit": "mM"},
      {"measurement": "kcat", "setting": "[1]", "value": "60 ± 3.33", "unit": "s⁻¹"},
      {"measurement": "kcat/Km", "setting": "[1]", "value": 1830, "unit": "M⁻¹ s⁻¹"},
      {"measurement": "Km", "setting": "[2]", "value": "70 ± 10", "unit": "mM"},
      {"measurement": "kcat/Km", "setting": "[2]", "value": 750, "unit": "M⁻¹ s⁻¹"},
      {"measurement": "Km", "setting": "[3]", "value": "40 ± 10", "unit": "mM"},
      {"measurement": "kcat", "setting": "[3]", "value": "30 ± 1.67", "unit": "s⁻¹"},
      {"measurement": "kcat/Km", "setting": "[3]", "value": 750, "unit": "M⁻¹ s⁻¹"}
    ]},
    {"molecule": "B2", "values": [
      {"measurement": "NADH-dependent XR kcat", "setting": "[4]; NADH as cofactor", "value": 18.33, "unit": "s⁻¹"},
      {"measurement": "Optimal pH", "setting": "[4]", "value": 6.0},
      {"measurement": "kcat", "setting": "[4]", "value": 21.67, "unit": "s⁻¹"},
      {"measurement": "Km", "setting": "[4]", "value": 72, "unit": "mM"}
    ]},
    {"molecule": "B3", "values": [
      {"measurement": "Optimal pH", "setting": "[4]", "value": 6.0},
      {"measurement": "kcat", "setting": "[4]", "value": 25, "unit": "s⁻¹"},
      {"measurement": "Km", "setting": "[4]", "value": 42, "unit": "mM"}
    ]},
    {"molecule": "B4", "values": [
      {"measurement": "kcat", "setting": "[4]", "value": 14.3, "unit": "s⁻¹"},
      {"measurement": "Km", "setting": "[4]", "value": 13.6, "unit": "mM"}
    ]}
  ]
}
